Data set [1] concerns the target T1, endogenous IRF3 in THP-1 cells (human (endogenous in THP-1)), Q14653.
T1 chain: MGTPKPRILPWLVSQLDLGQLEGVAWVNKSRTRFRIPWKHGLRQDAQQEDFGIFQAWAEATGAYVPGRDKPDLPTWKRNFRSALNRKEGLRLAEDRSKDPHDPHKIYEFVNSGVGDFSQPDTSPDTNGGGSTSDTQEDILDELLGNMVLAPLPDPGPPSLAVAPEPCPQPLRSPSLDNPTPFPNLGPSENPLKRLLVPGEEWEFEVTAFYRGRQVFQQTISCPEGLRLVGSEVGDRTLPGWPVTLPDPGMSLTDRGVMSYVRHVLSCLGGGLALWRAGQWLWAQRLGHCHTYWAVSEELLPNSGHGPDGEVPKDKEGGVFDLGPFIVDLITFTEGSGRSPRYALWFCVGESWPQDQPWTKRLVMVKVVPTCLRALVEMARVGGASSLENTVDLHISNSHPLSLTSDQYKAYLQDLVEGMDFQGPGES
Description: native gel or EMSA; native PAGE of THP-1 cell lysates, cells infected with HSV-1 (MOI = 1) for the indicated times. Conditions: remark: other sources report otherwise.

Data set [2] concerns the molecule itself. The data set is described as above.

Consider two molecules from publication PMC12667517, “Gigaxonin Potentiates Antiviral Innate Immune Responses by Targeting cGAS and TREX1” (Advanced Science, 2025).

B1: endogenous IRF3 in THP-1 cells, Q14653 1-427 (natural protein)
chain: MGTPKPRILPWLVSQLDLGQLEGVAWVNKSRTRFRIPWKHGLRQDAQQEDFGIFQAWAEATGAYVPGRDKPDLPTWKRNFRSALNRKEGLRLAEDRSKDPHDPHKIYEFVNSGVGDFSQPDTSPDTNGGGSTSDTQEDILDELLGNMVLAPLPDPGPPSLAVAPEPCPQPLRSPSLDNPTPFPNLGPSENPLKRLLVPGEEWEFEVTAFYRGRQVFQQTISCPEGLRLVGSEVGDRTLPGWPVTLPDPGMSLTDRGVMSYVRHVLSCLGGGLALWRAGQWLWAQRLGHCHTYWAVSEELLPNSGHGPDGEVPKDKEGGVFDLGPFIVDLITFTEGSGRSPRYALWFCVGESWPQDQPWTKRLVMVKVVPTCLRALVEMARVGGASSLENTVDLHISNSHPLSLTSDQYKAYLQDLVEGMDFQGPGES
For B1, the stoichiometry N in data set [1] is 2.

B2: endogenous gigaxonin in THP-1 cells (natural protein, human (endogenous in THP-1), UniProt Q9H2C0 1-597, looked up)
chain: MAEGSAVSDPQHAARLLRALSSFREESRFCDAHLVLDGEEIPVQKNILAAASPYIRTKLNYNPPKDDGSTYKIELEGISVMVMREILDYIFSGQIRLNEDTIQDVVQAADLLLLTDLKTLCCEFLEGCIAAENCIGIRDFALHYCLHHVHYLATEYLETHFRDVSSTEEFLELSPQKLKEVISLEKLNVGNERYVFEAVIRWIAHDTEIRKVHMKDVMSALWVSGLDSSYLREQMLNEPLVREIVKECSNIPLSQPQQGEAMLANFKPRGYSECIVTVGGEERVSRKPTAAMRCMCPLYDPNRQLWIELAPLSMPRINHGVLSAEGFLFVFGGQDENKQTLSSGEKYDPDANTWTALPPMNEARHNFGIVEIDGMLYILGGEDGEKELISMECYDIYSKTWTKQPDLTMVRKIGCYAAMKKKIYAMGGGSYGKLFESVECYDPRTQQWTAICPLKERRFGAVACGVAMELYVFGGVRSREDAQGSEMVTCKSEFYHDEFKRWIYLNDQNLCIPASSSFVYGAVPIGASIYVIGDLDTGTNYDYVREFKRSTGTWHHTKPLLPSDLRRTGCAALRIANCKLFRLQLQQGLFRIRVHSP
notes: By native PAGE both dimer and monomer in the steady state; source: endogenous, THP-1 lysate
In the case of B2, the “stoichiometry N” value in data set [2] turned out to be 2.

As usually defined, the stoichiometry N is the number of molecules, sites or subunits per partner or assembly.
